From the DeepSol protein solubility set

Experiment: soluble on expression in E. coli; label from the status in PepcDB or PDB records

Row | Sequence | soluble on expression in E. coli
1 | MGSDKIHHHHHHMYRVMFVDDEYMILEGLKWIIPWQELGFEIVKTARSAQEALAFLETESIDVLLTDITMPEMSGIELIEQAKKKGHQFISLILSGYQEFDYVKKGMALQVQDYLLKPVNKQELLANIQRIKIELDQQKKSHARVRLYLENGLMRWLNDEISEGEYEELMQQFATIKPGDFTVLLVEAEMSFLETIKELFMKKGQLLFIESWMSTYHQLLLIYKGARQEAFLFIREIEAILAGQGQIFVGESVNEWETVYESYEKVKQLQAIETFYQEFLPNNQKEQMNRSAEDFTFLAFNQALMIGDMQTIQRELDAIFNQLSQQHATPEYVRYVVFLLFSDISRQYPTVLEENYEKIVEEIRASNNLNTLYALMQQVLAEVKNKPKIKKYSESVSQAVERIEQGYLEELNLKTVADELHLNPSYLGQIFKKETKRSFSQYLNQVRTKHAQKLLLYTDDTINEISEKVGFNNTNYFSKMFKKLNGITPKEFREQYQSNYAGVEE | not soluble
2 | MGSDKIHHHHHHMKIAQVAPLWERVPPPSYGGIELVVSHLTNELVRRGHEVTLFASGDSQTLAHLETVCPRALRLDKNVQDYAAYETLELSQVYQNATEFDIIHSHLGISALPLANLVKTPTVHTLHGHFTKDNQNVFSHHHQQPYVSISNAQRQIHLNYIKTVYNGIEPKDYPFISQPKEPPYLAFLGRFSPEKGPHQAIAIAKQSGWRLKMAGKVDIVDAKFFEQEILPHIDGQQIEYLGEINHTEKAELLGNAAATLFPINWQEPFGLVMIESMATGTPVIGMNLGSVPEVIDQGKTGFICRTYEEMIQMIAVTLELDRRDCRESVVNKFSVSHMVDGYEAVYQQIIKDRVNLNGYIHTAKIRF | not soluble
3 | MSLHPEQIHNAINCLCLAATATVAGAMISMGCTTGQRSNSRNSRKSSRSNKSKRSQRSKRRSAQRKKSSSRRKKKLRKEKSRKSQRSKRKKRESERRKKERSKRIARSKKSIKRDRERDSDSSRIKKSGSKRNLEKSNRDDSKRKISKDKNSRRSSQEKSHKYSEPLFIPPVDYDDRDRSLKKKKSVRDNNEEGSRRSSSRDKSKDMKEKSQQSKKDSSRKSKKQQKSEKKKSAEQDNRSDPEDDREAEAPNWRRRRRAKEDQNVKARKTKKVKKNEEVPSKKSSKMSKRSKRSTDENLETAKSSRILKDSEPKSSRSSVTSQKIDSSRGMSKLRADALKRMEPKLLVSPNANSDRFQCNEKGCQKGQCSSEARYAQNVRRSASQKSLRAPKENKLKDGSAKTPKVSSTTTPPVDTMRTPTQEPRSIYIETGKSTYGEASKTSGNNARSVYLADPVSAPKAYSVTPQKSTKTPSERKSEKNLEKKASKKSIKSSRSGIQQREVTKTSSKHSSKHSKAPSSKKSSKKSSKKEQKSRALSNSSSKKSVGSHRNKSNR | not soluble
4 | MPEVHATALIPMLTGTNVPESEEEIDAPIYDQREVEKIRGIAHNIAENAKNPEKLMPDFMAANPGIMSTMESLKLSDFGKTSTVVPSISTSPGPIFTLANGIPAVGTPGTQSSTTVKA | soluble
5 | MDSEAVSSDSHVAAAIATRRRSNSVSDDYSVQRTNDDATQCKYFATQKGYWKDEFISRFANSSSNVSEARRFPEISMGYWARTAAIEKYVRDFLNEFDGNAQVVSLGCGFDTLFWRLVSSGAKLVKYVEVDFSSVTSKKIRHILKPIGPNSVDLKKSFESDAVVSHHADLHAGNYHLIGADLRQANELDQKLATCQLSHDIPTIFIAECVLVYMSADSSTALLKQIVSQFKQPAFVNYEQFRTSDAFTKVMEQNLGDRGIQLHGLEMCESAEKQEERFRNAGFKEVKVMDMNQIFNNFLDQKEVSRIREIEMLDEMELLQQLFAHYCVVSARI | not soluble
6 | MGSDKIHHHHHHMIKKSDYPRYIQMLKRRPEFSGFTPDEFNQLEQQMRIKEYPKGQLLFDQADTRSRFYFVISGLLRSERIDETGDFSFYSFIAENKGFPYRGLFHDHEYAYAVNTMTPAVVASFPMAEFENLLTRNSEMMKRVVVEMGQIINENEDQLQQMVTSSASDRVRNALKILGRKLGNQLAGDRWFVPYAITLIELAKMAGTTRETASQVVQRLEADGQIIYEHKHFTIFIK | not soluble
7 | MGSDKIHHHHHHMNPLDLIAKRAYPYETEKRDKTYLALNENPFPFPEDLVDEVFRRLNSDALRIYYDSPDEELIEKILSYLDTDFLSKNNVSVGNGADEIIYVMMLMFDRSVFFPPTYSCYRIFAKAVGAKFLEVPLTKDLRIPEVNVGEGDVVFIPNPNNPTGHVFEREEIERILKTGAFVALDEAYYEFHGESYVDFLKKYENLAVIRTFSKAFSLAAQRVGYVVASEKFIDAYNRVRLPFNVSYVSQMFAKVALDHREIFEERTKFIVEERERMKSALREMGYRITDSRGNFVFVFMEKEEKERLLEHLRTKNVAVRSFREGVRITIGKREENDMILRELEVFK | soluble
8 | MGSDKIHHHHHHMLDFNHQPSIAERINALIDSGLIADRDATPPRAYLGGSRLGHSCERALQFEFAGAPKDSGADFNGQTLRIFAIGHALEDVAIRWLRRAGFDIYTRKGNRPDGEQFGFSVAGGQVRGHVDGILADGPVIPGMGYPALWECKTMNAKNWRETVAKGVTVSKPVYAAQIALYQAYMEGTVPGISANPALFTAINKDTAELHHELVSFDGELAQRISDRAVRILQATDAGELLPRMSSDPDYFECRFCPWKTRCWA | not soluble
9 | MKQEFVAAIEIDGTGRIHVTPGESQFPYIYREAMEVSWNESTRSLHSPVPREWSYAQWLQQIFAAASEQGVKLVLGPNTRWVNVPNELRAELTHAAAA | soluble
10 | QQMQAESGFVQHVGFKCDNCGIEPIQGVRWHCQDCPPEMSLDFCDSCSDCLHETDIHKEDHQLEPIYRS | soluble
11 | MKQINDVSFLLDKRLVVLIEHQSTINENLPYRLLEYITRIYEKIVDKEKKYQKNLVKIPKPEFIVLYNGADPYPDYTELKLSDAFMDIEGLKLTGIDKIPLELIVPVYNINQGHNPEILKKCESLYGYSFFISKIREYQTQGLTLEELITPVIEYCIKNNILKDYLEAHASEVINMIFGEYDREMDIAVNRREAREEGREEGFKEGKLIIAKNLLSEGSTPEFVQRITGLTLDEIEEIGL | not soluble
12 | MTNAALDDKTIVRDYFNSTGFDRWRRIYGDGQVNFVQKDIRVGHQQTVDSVVAWLVADGNLPGLLVCDAGCGVGSLSIPLAQAGALVYGSDISEKMVGEAQQKAQEVLAYGNQPTFMTQDLAQLGGKYDTVICLDVLIHYPTEEASAMISHLASLADRRLILSFAPKTLGLTVLKKIGGLFPGPSKTTRAYQHKEADIRKILGDNGFSIARTGMTSTRFYYSRILEAVRSLEHHHHHH | not soluble
13 | MGSDKIHHHHHHMSMNHIRPWRNIERRKSRQIHVGNVPVGGDAPIAVQTMTNTLTTDIKGTIAQVQAAADAGADIVRVSVPDEASARALKEIVRESPVPIVADIHFHYKRGIEAAEAGAACLRINPGNIGDEKRVAEVIKAARDHNCSIRIGVNAGSLEKHLLEKYGEPCPDAMVESGLDHIKILQDHDFHEFKISVKASDVFMSAAAYQMLADATDAPIHLGITEAGGLMSGTIKSAIGLGQLLWMGIGDTLRVSLSADPVEEVKVGFEILKSLGLRHRGVNIISCPSCARQGFDVIKTVETLEERLEHIKTPMSLSIIGCVVNGPGEALMTDVGFTGGGAGSGMVYLAGKASHKMSNDQMIDHIVEEVEKKAAALDAQAAEDMKAAE | not soluble
14 | MGSDKIHHHHHHMIKCIAVDDEPLALEQLTGYIARVPFLQLIASCQDAFSAMQVLSEEEVDLMFVDIHMPDLNGLDLVRSLVVKPLIVFTTAYPEYAVEGFKVDAVDYLLKPFEFQDLLKAADKARRQFEYHLQDNGGGTETDLLEKDGSLFVKSEYKIIRINVADICYIEGMSEYVRIYTDTADKPVVTLLSMRKLEERLPQEMFMRVHRSYIVNLRKITEVSRLRIIFNKNIYIPVGDNYKERFTEYINKICVSS | not soluble
15 | MTGGFTPDSGRYHLYISHACPWAHRTMIFRTLKGLEDHITISAVHPDMLGEGWTFEPDDNGATGDTLYNSAFARDIYTRADPRFTGRVTVPILWDKQRETIVSNESSEIIRMFNAAFNGLTGNSDDYWPEPLRDAIAPVNERIYDTFNNGVYKAGFATTQQAYDAAIVPLFDTLDWLEERLSHNRYLMGDQLTEADWRLFTTLVRFDPVYHLHFKCNRKRIVDYPNLWGYTRELYQTPGVADTVNFDHIVRHYHYSHETINPNRIIPINPVLDFHRPHGRGLEHHHHHH | not soluble
16 | MAEFKEQVLDILEEVCENDIVKENLDVQLFEEGILDSFAVVSLLVEFQERLDIEVSISDFDRDEWATPNMVIKKLEEIR | not soluble
17 | GSHMNGEPDIAQLKGLSPSQRQAYAVQLKNRGNHFFTAKNFNEAIKYYQYAIELDPNEPVFYSNISACYISTGDLEKVIEFTTKALEIKPDHSKALLRRASANESLGNFTDAMFDLSVLSLNGDFDGASIEPMLERNLNKQAMKVLNENLSKDEGRGSQVLPSNTSLASFFGIFDSHLEVSSVNTSSNYDTAYALLSDALQRLYSATDEGYLVANDLLTKSTDMYHSLLSANTVDDPLRENAALALCYTGIFHFLKNNLLDAQVLLQESINLHPTPNSYIFLALTLADKENSQEFFKFFQKAVDLNPEYPPTYYHRGQMYFILQDYKNAKEDFQKAQSLNPENVYPYIQLACLLYKQGKFTESEAFFNETKLKFPTLPEVPTFFAEILTDRGDFDTAIKQYDIAKRLEEVQEKIHVGIGPLIGKATILARQSSQDPTQLDEEKFNAAIKLLTKACELDPRSEQAKIGLAQLKLQMEKIDEAIELFEDSAILARTMDEKLQATTFAEAAKIQKRLRADPIISAKMELTLARYRAKGML | soluble
18 | MSLGREKGLSTFLFLLLFSISLHAQRQDILLNNNWNFRFSHQVQGDTRRVDLPHTWNAQDALAGKIDYKRGIGNYEKALYIRPEWKGKRLFLRFDGVNSIADVFINRKHIGEHRGGYGAFIFEITDLVKYGEKNSVLVRANNGEQLDIMPLVGDFNFYGGIYRDVHLLITDETCISPLDYASPGVYLVQEVVSPQEAKVCAKVNLSNRAADGTAELQVLVTDGTKVICKESRNVSLKQGADILEQLPLLIQKPRLWNGCEDPFMYQVSISLHKDGKQIDSVTQPLGLRYYHTDPDKGFFLNGKHLPLHGVCRHQDRAEVGNALRPQHHEEDVALMREMGVNAIRLAHYPQATYMYDLMDKHGIVTWAEIPFVGPGGYADKGFVDQASFRENGKQQLIELIRQHYNHPSICFWGLFNELKEVGDNPVEYVKELNALAKQEDPTRPTTSASNQDGNLNFITENIAWNRYDGWYGSTPKTLATFLDRTHKKHPELRIGISEYGAGASIYHQQDSLKQPSASGWWHPENWQTYYHMENWKIIAERPFVWGTFVWNMFDFGAAHRTEGDRPGINDKGLVTFDRKVRKDAFYFYKANWNKQEPMIYLAEKRCRLRYQPEQTFMAFTTAPEAELFVNGVSCGKQKADTYSTVVWKNVKLTSGENIIRVTTPGKKPLTDEVTVEYKEDREGHHHHHH | not soluble
19 | MSGSLEIPGLDDGLLPVETGYGLFQGTAKKRVVICNDNDKFRHSGPLPRALCGSFAAIGLLPLPVVETRPAPPPKVAPITPALQGKACGQAVFEGLRNKNAVETVDNLPALRQTARTGKRWKALESLMQETPAIIYKIVPETLWTAARAEGMFEGAAIDLTDGFIHFSTAKQVAETAARHFSGQVDLLLIAVDGAALGDKLVYEPSRGGDLFPHLYAPLPFSAVLWETPLSLDHDGQHQFPEILLEHHHHHH | not soluble
20 | MFIESRELVMKHRIPVAKTERYWKGLEEGKVFKTVCKSCGKEHHPPRAECLCGGEVEWVEITGEGVVEAFTTVHTIPAGFEWHREPYTIAIARFGEVRVMGWAKEVRVGDVVRLKPGKDETGVWKVYFEVVLEHHHHHH | soluble
21 | MKDSSRAELMRKVQETSFACVDMNLYLDNHPDDKNAINTYNSLCNQFAQARYAYENKYGPLTNFGYAPSRCPWQWADQPWPWDREFNYLEHHHHHH | soluble
22 | YDTVIRNRQTNDVNYLKRLAKKFGFSETQFMTTYQSSELAANLDEERQVVSRLKINQLPAYVVTYNEQSYVIKGVLKYKEWLDIIQQITN | not soluble
